For experiment [1], the target named is Recombinant human TβRII-ED (residues 1-137) (human). Put plainly: ELISA.
Experiment [2] deals with Recombinant human TβRI-ED (residues 1-101) (human). Put plainly: ELISA.

Chain of Recombinant human TβRII-ED (residues 1-137) (human) (P37173 whole entry, the tested form may be a part): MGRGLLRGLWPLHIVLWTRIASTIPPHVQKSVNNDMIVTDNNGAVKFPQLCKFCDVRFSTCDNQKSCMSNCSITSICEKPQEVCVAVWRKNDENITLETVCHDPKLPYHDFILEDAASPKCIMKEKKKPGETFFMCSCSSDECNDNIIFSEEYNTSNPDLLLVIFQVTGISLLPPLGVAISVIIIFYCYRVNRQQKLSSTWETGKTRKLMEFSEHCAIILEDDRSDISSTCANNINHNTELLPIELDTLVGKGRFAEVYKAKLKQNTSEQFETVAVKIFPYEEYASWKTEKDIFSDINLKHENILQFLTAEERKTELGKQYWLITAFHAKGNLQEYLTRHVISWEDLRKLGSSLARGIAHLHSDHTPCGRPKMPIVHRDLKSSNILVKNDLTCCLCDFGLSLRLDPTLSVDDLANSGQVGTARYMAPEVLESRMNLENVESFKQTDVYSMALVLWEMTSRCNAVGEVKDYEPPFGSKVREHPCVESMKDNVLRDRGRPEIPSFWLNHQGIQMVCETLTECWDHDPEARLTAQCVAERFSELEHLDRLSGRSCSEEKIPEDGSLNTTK

As to LTGKNFPMFHRN [Pep1 (synthetic peptide …)], the IC50 stood at 156 µM in experiment [1] and 110 µM in experiment [2]. In addition, the Kd in experiment [1] and in experiment [2] was 10 µM each time.

As for LTGKNFPMFHRN [phage clone 1 (M13 phage displaying … on the N-terminus of the PIII protein)], in experiment [2], the Kd stood at 0.0001 µM.

As for MHRMPSFLPTTL [phage clone 2 (M13 phage displaying … on the N-terminus of the PIII protein)], the Kd in experiment [2] was found to be 0.0001 µM.

As to MHRMPSFLPTTL [Pep2 (synthetic peptide …)], in experiment [1], the concentration for half-maximal inhibition (IC50) worked out at 274 µM and the Kd was determined as 10 µM. In experiment [2], the half-inhibitory concentration (IC50) turned out to be 256 µM and the dissociation constant (Kd) amounted to 10 µM.

(Values after paper PMC3064480.)
